Source: patent US20260232827A1 (Zymeworks, published 2026)
Each block holds one binder with its values, some of them ahead of it.

Assays:
[1] = target: T1, human sodium-dependent phosphate transporter 2B (NaPi2b) (human, UniProt O95436 1-690); assay: cell-based or functional assay
T1 sequence: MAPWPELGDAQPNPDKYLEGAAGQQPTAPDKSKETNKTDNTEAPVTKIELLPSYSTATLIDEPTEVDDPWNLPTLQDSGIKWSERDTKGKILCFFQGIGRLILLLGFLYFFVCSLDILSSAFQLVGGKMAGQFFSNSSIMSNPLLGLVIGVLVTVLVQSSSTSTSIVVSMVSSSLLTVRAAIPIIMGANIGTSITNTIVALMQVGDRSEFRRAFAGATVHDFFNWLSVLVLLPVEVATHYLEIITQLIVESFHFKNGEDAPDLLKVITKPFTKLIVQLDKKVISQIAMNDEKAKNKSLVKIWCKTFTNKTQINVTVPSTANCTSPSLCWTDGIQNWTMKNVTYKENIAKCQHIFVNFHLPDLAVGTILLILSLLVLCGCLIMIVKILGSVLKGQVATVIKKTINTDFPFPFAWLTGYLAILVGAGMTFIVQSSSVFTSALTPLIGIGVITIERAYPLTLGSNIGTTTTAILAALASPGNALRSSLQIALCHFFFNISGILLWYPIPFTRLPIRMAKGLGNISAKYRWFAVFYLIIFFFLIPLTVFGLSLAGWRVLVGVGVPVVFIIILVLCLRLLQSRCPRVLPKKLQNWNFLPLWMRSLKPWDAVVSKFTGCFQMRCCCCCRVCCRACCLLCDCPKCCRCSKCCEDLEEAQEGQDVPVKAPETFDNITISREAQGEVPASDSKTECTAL

[2] = target: T1, human sodium-dependent phosphate …; assay: flow cytometry on HEK293-6e cells transfected with human NaPi2b
mouse NaPi2b [3] = target: T2, mouse NaPi2b (mouse, UniProt Q9DBP0 1-697); assay: flow cytometry on HEK293-6e cells transfected with mouse NaPi2b
T2 construct: Transfected into HEK293-6e cells (clone CL_#13476); also called Ms NaPi2b
T2 sequence: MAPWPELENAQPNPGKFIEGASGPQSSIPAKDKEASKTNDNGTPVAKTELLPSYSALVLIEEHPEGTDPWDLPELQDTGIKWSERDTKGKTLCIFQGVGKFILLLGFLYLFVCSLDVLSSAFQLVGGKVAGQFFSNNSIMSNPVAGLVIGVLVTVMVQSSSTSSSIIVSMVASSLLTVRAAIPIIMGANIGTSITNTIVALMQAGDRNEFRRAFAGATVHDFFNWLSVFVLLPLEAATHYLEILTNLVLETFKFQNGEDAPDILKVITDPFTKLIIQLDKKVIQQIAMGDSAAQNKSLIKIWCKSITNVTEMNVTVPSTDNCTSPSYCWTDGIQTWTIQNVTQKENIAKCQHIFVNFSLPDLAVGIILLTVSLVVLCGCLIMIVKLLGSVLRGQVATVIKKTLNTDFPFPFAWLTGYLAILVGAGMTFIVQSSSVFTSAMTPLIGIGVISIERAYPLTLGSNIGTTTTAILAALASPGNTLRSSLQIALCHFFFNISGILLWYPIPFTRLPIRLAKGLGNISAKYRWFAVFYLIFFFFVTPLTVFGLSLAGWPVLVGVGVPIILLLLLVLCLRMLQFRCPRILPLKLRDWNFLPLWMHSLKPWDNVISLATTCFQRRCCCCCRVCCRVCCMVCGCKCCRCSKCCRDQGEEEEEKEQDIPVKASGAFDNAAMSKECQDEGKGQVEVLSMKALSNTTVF

[4] = target: T1, human sodium-dependent phosphate …; assay: flow cytometry on HEK293-6e cells transfected with human NaPi2b; remark: listed apart in the source
cynomolgus monkey NaPi2b [5] = target: T3, cynomolgus monkey NaPi2b (cynomolgus monkey, UniProt O95436 1-690 (human entry)); assay: flow cytometry on HEK293-6e cells transfected with cynomolgus NaPi2b
T3 construct: Transfected into HEK293-6e cells (clone CL_#13433); also called Cy NaPi2b; Cyno NaPi2b
T3 chain: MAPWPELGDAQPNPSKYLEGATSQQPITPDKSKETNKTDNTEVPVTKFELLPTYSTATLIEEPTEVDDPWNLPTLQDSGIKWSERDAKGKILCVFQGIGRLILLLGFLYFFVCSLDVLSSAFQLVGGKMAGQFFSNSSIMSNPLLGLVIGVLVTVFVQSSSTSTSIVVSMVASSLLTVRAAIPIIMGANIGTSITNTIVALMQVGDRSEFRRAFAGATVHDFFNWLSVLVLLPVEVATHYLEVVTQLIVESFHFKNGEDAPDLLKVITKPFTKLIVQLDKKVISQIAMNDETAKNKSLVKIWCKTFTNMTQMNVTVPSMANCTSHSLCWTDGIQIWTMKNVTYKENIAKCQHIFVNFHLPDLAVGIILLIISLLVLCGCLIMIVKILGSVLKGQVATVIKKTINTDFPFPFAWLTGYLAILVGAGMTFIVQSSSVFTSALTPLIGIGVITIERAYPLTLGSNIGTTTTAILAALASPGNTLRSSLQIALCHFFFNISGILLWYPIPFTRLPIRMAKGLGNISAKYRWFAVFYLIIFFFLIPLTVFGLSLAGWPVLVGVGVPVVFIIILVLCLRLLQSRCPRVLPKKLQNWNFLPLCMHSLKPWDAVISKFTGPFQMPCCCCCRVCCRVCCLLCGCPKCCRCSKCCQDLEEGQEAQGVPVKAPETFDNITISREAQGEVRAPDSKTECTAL

[6] = target: T1, human sodium-dependent phosphate …; assay: flow cytometry on IGROV-1 cells, 24 h at 4 C, anti-human IgG Fc AF647
[7] = target: T1, human sodium-dependent phosphate …; assay: flow cytometry on OVCAR-3 cells, 24 h at 4 C, anti-human IgG Fc AF647
[8] = target: T1, human sodium-dependent phosphate …; assay: flow cytometry on HEK293-6e cells transfected with human NaPi2b, apparent Kd
mouse NaPi2b [9] = target: T2, mouse NaPi2b; assay: flow cytometry on HEK293-6e cells transfected with mouse NaPi2b, apparent Kd
[10] = target: T1, human sodium-dependent phosphate …; assay: flow cytometry on HEK293-6e cells transfected with human NaPi2b, apparent Kd; remark: listed apart in the source
cynomolgus monkey NaPi2b [11] = target: T3, cynomolgus monkey NaPi2b; assay: flow cytometry on HEK293-6e cells transfected with cynomolgus NaPi2b, apparent Kd
[12] = target: T4, human sodium-dependent phosphate transporter 2B (NaPi2b) (human, UniProt O95436 1-690); assay: KinExA, monovalent antibody, IGROV-1 cells (endogenous NaPi2b) as titrant, N-curve analysis
T4 construct: UniProt ID is given as 095436 [sic]; also called hNaPi2b; Hu NaPi2b
T4 sequence: T1 sequence

B1: humanized anti-NaPi2b antibody variant v38591 (antibody, human IgG1, kappa)
heavy: not shown
light: DVQMTQSPSSLSASVGDRVTITCRASQDVYSYLNWYQQKPGKAVKLLIYYTSRLQSGVPSRFSGSGSGTDYTLTISSLQPEDFATYYCQQYNIFPWTFGQGTKLEIKRTVAAPSVFIFPPSDEQLKSGTASVVCLLNNFYPREAKVQWKVDNALQSGNSQESVTEQDSKDSTYSLSSTLTLSKADYEKHKVYACEVTHQGLSSPVTKSFNRGEC
notes: Human IgG1/kappa, full-size antibody; same as v29456 but the heavy chains include a C-terminal lysine; also called v38591 (H1L2); v38591 wild-type Fc
Internalized Fluorescence in OVCAR-3, 15 min, 100 nM [1]: 7620
Internalized Fluorescence in OVCAR-3, 4 hr, 100 nM [1]: 16600
Internalized Fluorescence in OVCAR-3, 16 hr, 100 nM [1]: 24300
Internalized Fluorescence in OVCAR-3, 24 hr, 100 nM [1]: 32400
Bmax [2]: 651
Bmax (mouse NaPi2b [3]): 385
Bmax [4]: 651
Bmax (cynomolgus monkey NaPi2b [5]): 429
Bmax [6]: 22200
Kd [6]: 1.67 nM
Bmax [7]: 15100
Kd [7]: 2.8 nM
Kd [8]: 1.68 nM
Kd (mouse NaPi2b [9]): 0.29 nM
Kd [10]: 1.68 nM
Kd (cynomolgus monkey NaPi2b [11]): 0.27 nM

B2: v18993 (lifastuzumab) (antibody, human IgG1, kappa)
heavy 1: GEVQLVESGGGLVQPGGSLRLSCAASGFSFSDFAMSWVRQAPGKGLEWVATIGRVAFHTYYPDSMKGRFTISRDNSKNTLYLQMNSLRAEDTAVYYCARHRGFDVGHFDFWGQGTLVTVSSASTKGPSVFPLAPSSKSTSGGTAALGCLVKDYFPEPVTVSWNSGALTSGVHTFPAVLQSSGLYSLSSVVTVPSSSLGTQTYICNVNHKPSNTKVDKKVEPKSCDKTHTCPPCPAPELLGGPSVFLFPPKPKDTLMISRTPEVTCVVVDVSHEDPEVKFNWYVDGVEVHNAKTKPREEQYNSTYRVVSVLTVLHQDWLNGKEYKCKVSNKALPAPIEKTISKAKGQPREPQVYVYPPSRDELTKNQVSLTCLVKGFYPSDIAVEWESNGQPENNYKTTPPVLDSDGSFALVSKLTVDKSRWQQGNVFSCSVMHEALHNHYTQKSLSLSPG
heavy 2: not shown
light: GDIQMTQSPSSLSASVGDRVTITCRSSETLVHSSGNTYLEWYQQKPGKAPKLLIYRVSNRFSGVPSRFSGSGSGTDFTLTISSLQPEDFATYYCFQGSFNPLTFGQGTKVEIKRTVAAPSVFIFPPSDEQLKSGTASVVCLLNNFYPREAKVQWKVDNALQSGNSQESVTEQDSKDSTYSLSSTLTLSKADYEKHKVYACEVTHQGLSSPVTKSFNRGEC
notes: Two different heavy chains (heterodimeric Fc)
Internalized Fluorescence in OVCAR-3, 15 min, 100 nM [1]: 2480
Internalized Fluorescence in OVCAR-3, 4 hr, 100 nM [1]: 8750
Internalized Fluorescence in OVCAR-3, 16 hr, 100 nM [1]: 8600
Internalized Fluorescence in OVCAR-3, 24 hr, 100 nM [1]: 13900
Bmax [2]: 678
Bmax [4]: 678
Bmax (cynomolgus monkey NaPi2b [5]): 424
Bmax [6]: 20000
Kd [6]: 2.69 nM
Bmax [7]: 14500
Kd [7]: 5.79 nM
Kd [8]: 5.76 nM
Kd [10]: 5.76 nM
Kd (cynomolgus monkey NaPi2b [11]): 4.71 nM

B3: v18992 (MX35) (antibody, human IgG1, kappa)
heavy 1: GQVQLVQSGAEVVKPGASVKMSCKASGYTFTGYNIHWVKQAPGQGLEWIGAIYPGNGDTSYKQKFRGRATLTADTSTSTVYMELSSLRSEDSAVYYCARGETARATFAYWGQGTLVTVSSASTKGPSVFPLAPSSKSTSGGTAALGCLVKDYFPEPVTVSWNSGALTSGVHTFPAVLQSSGLYSLSSVVTVPSSSLGTQTYICNVNHKPSNTKVDKKVEPKSCDKTHTCPPCPAPELLGGPSVFLFPPKPKDTLMISRTPEVTCVVVDVSHEDPEVKFNWYVDGVEVHNAKTKPREEQYNSTYRVVSVLTVLHQDWLNGKEYKCKVSNKALPAPIEKTISKAKGQPREPQVYVYPPSRDELTKNQVSLTCLVKGFYPSDIAVEWESNGQPENNYKTTPPVLDSDGSFALVSKLTVDKSRWQQGNVFSCSVMHEALHNHYTQKSLSLSPG
heavy 2: not shown
light: GDIQMTQSPSSLSASVGDRVTITCSASQDIGNFLNWYQQKPGKTVKVLIYYTSSLYSGVPSRFSGSGSGTDYTLTISSLQPEDFATYYCQQYSKLPLTFGQGTKLELKRTVAAPSVFIFPPSDEQLKSGTASVVCLLNNFYPREAKVQWKVDNALQSGNSQESVTEQDSKDSTYSLSSTLTLSKADYEKHKVYACEVTHQGLSSPVTKSFNRGEC
notes: as for B2
Internalized Fluorescence in OVCAR-3, 15 min, 100 nM [1]: 6650
Internalized Fluorescence in OVCAR-3, 4 hr, 100 nM [1]: 16100
Internalized Fluorescence in OVCAR-3, 16 hr, 100 nM [1]: 18600
Internalized Fluorescence in OVCAR-3, 24 hr, 100 nM [1]: 28600
Bmax [2]: 548
Bmax (mouse NaPi2b [3]): 379
Bmax [4]: 548
Bmax (cynomolgus monkey NaPi2b [5]): 378
Bmax [6]: 21400
Kd [6]: 1.49 nM
Bmax [7]: 14500
Kd [7]: 3.03 nM
Kd [8]: 1.51 nM
Kd (mouse NaPi2b [9]): 0.35 nM
Kd [10]: 1.51 nM
Kd (cynomolgus monkey NaPi2b [11]): 0.67 nM

Second part, the binder after the results:

Kd [12]: 0.15 nM
B4: v29814 (monovalent format of parental chimeric variant 23855) (antibody, V domains shown)
VH: QAYLQQSGAELVRPGASVKMSCKASGFTFTSYNVHWVKQTPRQGLEWIAAISPGNGDLSYNQRFKDKATLTVDRSSSTAYMQLSGLTSEDSAVYFCARGRTGMGAVDYWGQGTSVTVSS
VL: DVQMTQTASSLSASLGDRVTISCRASQDVYSYLNWYQQKPHGTVKLLIYYTSRLQSGVPSRFTGSGSGTDYSLTISNLEPEDIATYYCQQYNIFPWTFGGGTKLEIK
notes: Monovalent format; VH and VL are those of v23855; also called parental chimeric monovalent antibody variant

Kd [12]: 0.283 nM
B5: v36124 (monovalent format of humanized antibody variant 29456) (antibody, V domains shown)
VH: QVQLVQSGAEVKKPGASVKVSCKASGFTFTSYNVHWVRQAPGQGLEWMGAISPGNGDLSYAQKFQGRVTMTRDTSTSTVYMELSSLRSEDTAVYYCARGRTGMGAVDYWGQGTLVTVSS
VL: DVQMTQSPSSLSASVGDRVTITCRASQDVYSYLNWYQQKPGKAVKLLIYYTSRLQSGVPSRFSGSGSGTDYTLTISSLQPEDFATYYCQQYNIFPWTFGQGTKLEIK
notes: Monovalent format; rest of the construct not described; also called VH1/VL2
